Columns and labels:
[1] = test system: GST fusion protein containing the first 70 amino acids of p53 (GST-p531-70)
[2] = target: GST-hUpf11019-1118 (GST fused to the carboxyl-terminal region of hUpf1, amino acids 1019-1118) (UniProt Q92900)
PHAS-I/4E-BP1 protein = PHAS-I/4E-BP1 protein (UniProt Q13541)
Chain of PHAS-I/4E-BP1 protein (Q13541 whole entry): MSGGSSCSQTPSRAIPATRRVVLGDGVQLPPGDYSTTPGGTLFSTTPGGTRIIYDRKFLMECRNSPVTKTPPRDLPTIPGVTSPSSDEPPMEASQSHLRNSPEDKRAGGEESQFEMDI

Chain of GST fusion protein containing the first 70 amino acids of p53 (GST-p531-70) (chain, as listed by the source): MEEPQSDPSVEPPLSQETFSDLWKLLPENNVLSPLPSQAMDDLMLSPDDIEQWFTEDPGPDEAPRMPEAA
Chain of GST-hUpf11019-1118 (GST fused to the carboxyl-terminal region of hUpf1, amino acids 1019-1118) (Q92900 1019-1118): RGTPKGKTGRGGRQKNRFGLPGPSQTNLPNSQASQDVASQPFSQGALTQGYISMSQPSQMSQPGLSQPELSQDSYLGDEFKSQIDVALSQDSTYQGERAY

| Substance | phosphorylation of substrate in immune complex kinase assay, compared with GST-hUpf11019-1118 [1] | specific kinase activity in immune complex kinase assay (ratio of 32P incorporation into substrate to level of HA-tagged kinase) [1] | phosphorylation of substrate in immune complex kinase assay [2] | phosphorylation of substrate in immune complex kinase assay (GST-p531-70(S15A)) | phosphorylation of substrate in immune complex kinase assay (PHAS-I/4E-BP1 protein) | specific kinase activity in immune complex kinase assay [1] |
| --- | --- | --- | --- | --- | --- | --- |
| HA-tagged wild-type ATX (HA-ATXWT) | GST-p531-70 was more avidly phosphorylated by ATX than was the GST-hUpf11019-1118 substrate | the specific kinase activity of ATXWT was approximately 3.5-fold higher than that of ATMWT | phosphorylated by both ATM and ATX, with the latter protein kinase showing the higher specific catalytic activity | nearly abolished | poorly phosphorylated |  |
| HA-tagged wild-type ATM (HA-ATMWT) |  |  | phosphorylated by both ATM and ATX |  |  | the specific kinase activity of HA-ATXWT towards GST-p531-70 was significantly higher than that of HA-ATM |

— patent US20040248244
